Data: US20250154253A1 (ROCKEFELLER UNIVERSITY, published 2025)
Blank lines part the entries; values can stand above or below the binder they belong to.

Experiments:
FcγRI [1] = target: T1, FcγRI (human, UniProt P12314); test: no assay stated; drawn summary table of graded binding (- to ++++), for which the text cites Weitzenfeld et al. 2019
T1 construct: also called human FcγRI; hFcγRI

FcγRIIb [2] = target: T2, FcγRIIb (human, UniProt P31994); test: as above
T2 construct: also called human FcγRIIb; hFcγRIIB
T2 sequence (receptor, looked up): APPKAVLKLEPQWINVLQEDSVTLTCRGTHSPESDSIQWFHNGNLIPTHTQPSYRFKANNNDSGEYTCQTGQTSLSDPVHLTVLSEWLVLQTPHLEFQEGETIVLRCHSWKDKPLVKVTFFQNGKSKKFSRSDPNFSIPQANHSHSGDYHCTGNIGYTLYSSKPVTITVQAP

FcγRI [3] = target: T3, FcγRI (mouse, UniProt P26151); test: no assay stated; drawn summary table of graded binding (- to ++++), for which the text cites Nimmerjahn et al. 2005
T3 construct: also called mouse FcγRI; mFcγRI
T3 sequence (receptor, looked up): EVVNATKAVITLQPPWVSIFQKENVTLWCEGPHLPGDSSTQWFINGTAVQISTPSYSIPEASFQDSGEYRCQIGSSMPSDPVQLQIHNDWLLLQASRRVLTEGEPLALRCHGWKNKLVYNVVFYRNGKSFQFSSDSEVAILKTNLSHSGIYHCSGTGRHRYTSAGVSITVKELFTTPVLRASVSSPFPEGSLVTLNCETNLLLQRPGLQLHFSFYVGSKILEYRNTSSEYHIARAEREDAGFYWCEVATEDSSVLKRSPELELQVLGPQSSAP

FcγRIII = target: T4, FcγRIII (mouse, UniProt P08508); test: as above
T4 construct: also called mouse FcγRIII; mFcγRIII
T4 sequence (receptor, looked up): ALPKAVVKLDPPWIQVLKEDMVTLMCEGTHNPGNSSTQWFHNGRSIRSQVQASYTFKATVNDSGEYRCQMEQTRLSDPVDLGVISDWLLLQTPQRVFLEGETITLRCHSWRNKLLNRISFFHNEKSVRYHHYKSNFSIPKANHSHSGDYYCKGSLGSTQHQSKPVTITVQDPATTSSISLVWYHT

FcγRIIb [4] = target: T5, FcγRIIb (mouse, UniProt P08101); test: as above
T5 construct: also called mouse FcγRIIb; mFcγRIIB
T5 sequence (receptor, looked up): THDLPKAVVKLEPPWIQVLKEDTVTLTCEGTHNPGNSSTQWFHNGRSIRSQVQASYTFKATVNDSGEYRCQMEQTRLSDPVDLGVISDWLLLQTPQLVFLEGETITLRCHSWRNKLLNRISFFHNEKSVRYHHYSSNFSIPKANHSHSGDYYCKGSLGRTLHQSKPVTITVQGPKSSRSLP

[5] = target: T6, recombinant mouse CD47 (SinoBiological 57231-MNAH) (mouse, UniProt Q61735 19-140, limits assumed); test: ELISA on plate-coated recombinant mouse CD47 (1 ug/mL), HRP-conjugated anti-IgG, absorbance 450 nm
T6 construct: Bought protein coated on ELISA plates at 1 ug/mL; also called mCD47
T6 sequence (looked up): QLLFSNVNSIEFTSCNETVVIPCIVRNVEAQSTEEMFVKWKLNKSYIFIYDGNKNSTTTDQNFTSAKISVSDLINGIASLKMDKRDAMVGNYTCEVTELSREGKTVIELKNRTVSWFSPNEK

FcγRIV = target: T7, FcγRIV; test: no assay stated; drawn summary table of graded binding (- to ++++), for which the text cites Nimmerjahn et al. 2005
T7 construct: also called mouse FcγRIV; mFcγRIV
T7 chain: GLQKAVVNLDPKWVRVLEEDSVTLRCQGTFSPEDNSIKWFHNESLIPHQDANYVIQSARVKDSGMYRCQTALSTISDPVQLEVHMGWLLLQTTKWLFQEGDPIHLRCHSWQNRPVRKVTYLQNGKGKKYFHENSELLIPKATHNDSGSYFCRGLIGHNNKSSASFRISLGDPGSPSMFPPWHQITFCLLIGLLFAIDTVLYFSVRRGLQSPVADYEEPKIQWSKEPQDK

[6] = target: T8, recombinant human SIRPα-hFc (SinoBiological 11612-H02H1) (human, UniProt P78324 31-370); test: flow cytometry: recombinant hSIRPα incubated with RBCs of WT mice
T8 construct: Bought fusion protein; also called hSIRPα; recombinant hSIRPα; not shown: human Fc (hFc)
T8 sequence (P78324 31-370 limits assumed): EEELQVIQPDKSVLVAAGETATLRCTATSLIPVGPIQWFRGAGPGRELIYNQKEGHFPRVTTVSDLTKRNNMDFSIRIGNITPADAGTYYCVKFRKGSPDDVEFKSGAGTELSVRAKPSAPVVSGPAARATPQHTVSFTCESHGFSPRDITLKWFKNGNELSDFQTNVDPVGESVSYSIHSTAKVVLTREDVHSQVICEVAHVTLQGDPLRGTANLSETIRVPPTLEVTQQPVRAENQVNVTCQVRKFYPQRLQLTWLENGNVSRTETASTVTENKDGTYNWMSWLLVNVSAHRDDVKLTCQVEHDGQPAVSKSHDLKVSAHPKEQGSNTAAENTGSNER

T1 sequence (P12314 16-288 limits assumed): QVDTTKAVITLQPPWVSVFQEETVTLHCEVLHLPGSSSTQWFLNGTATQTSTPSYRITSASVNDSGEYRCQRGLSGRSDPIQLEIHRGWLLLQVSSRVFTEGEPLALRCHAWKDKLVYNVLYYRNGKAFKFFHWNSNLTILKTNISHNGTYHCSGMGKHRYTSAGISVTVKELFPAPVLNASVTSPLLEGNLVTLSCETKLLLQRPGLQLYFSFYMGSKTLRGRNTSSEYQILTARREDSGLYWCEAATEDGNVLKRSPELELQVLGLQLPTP

- binding result [5]: binds
B5: MIAP301-mIgG2a (antibody)
heavy: QVKLLQSGAALVKPGASVKMSCQASGYSFTDYWVTWVKQSHGQSLEWIGEIYPSNTVTNFNDNFKGKATLTVDKSTSTAYMELSRLTSEDSAIYYCTRLGNSGYRVGWFLYWGQGTLVTVISASTTAPSVYPLAPVCGGTTGSSVTLGCLVKGYFPEPVTLTWNSGSLSSGVHTFPALLQSGLYTLSSSVTVTSNTWPSQTITCNVAHPASSTKVDKKIEPRVPITQNPCPPLKECPPCAAPDLLGGPSVFIFPPKIKDVLMISLSPMVTCVVVDVSEDDPDVQISWFVNNVEVHTAQTQTHREDYNSTLRVVSALPIQHQDWMSGKEFKCKVNNRALPSPIEKTISKPRGPVRAPQVYVLPPPAEEMTKKEFSLTCMITGFLPAEIAVDWTSNGRTEQNYKNTATVLDSDGSYFMYSKLRVQKSTWERGSLFACSVVHEGLHNHLTTKTISRSLGK
VL: SDTVLTQSPALAVSPGERVTISCKASESVSSHMHWYQQKPGQQPKLLIYKASNLASGVPARFSGSGSGTDFTLTIDPVEADDTATYFCQQGWNGPFTFGAGTRLELKRAVD
notes: Heavy chain assembled from the VH entry and the constant region entry named for the Fc format; also called mIgG2a Fc variant of MIAP301; anti-mCD47 ab clone MIAP301 (mIgG2a Fc)

- binding result (FcγRI [3]): no binding
- binding result (FcγRIII): no binding
- binding result (FcγRIV): no binding
- binding result (FcγRIIb [4]): no binding
B6: IgG1 D265A (antibody)
heavy chain constant region: TKGPSVYPLAPGSAAQTNSMVTLGCLVKGYFPEPVTVTWNSGSLSSGVHTFPAVLQSDLYTLSSSVTVPSSTWPSQTVTCNVAHPASSTKVDKKIVPRDCGCKPCICTVPEVSSVFIFPPKPKDVLTITLTPKVTCVVVAISKDDPEVQFSWFVDDVEVHTAQTKPREEQINSTFRSVSELPIMHQDWLNGKEFKCRVNSAAFPAPIEKTISKTKGRPKAPQVYTIPPPKEQMAKDKVSLTCMITNFFPEDITVEWQWNGQPAENYKNTQPIMDTDGSYFVYSKLNVQKSNWEAGNTFTCSVLHEGLHNHHTEKSLSHSPGK
notes: also called mIgG1-D265A; mouse IgG1 D265A (Fc format)

- binding result [6]: no binding
B7: mouse CD47 on RBCs of WT (C57BL/6J) mice (receptor, UniProt Q61735 19-303, looked up)
chain: QLLFSNVNSIEFTSCNETVVIPCIVRNVEAQSTEEMFVKWKLNKSYIFIYDGNKNSTTTDQNFTSAKISVSDLINGIASLKMDKRDAMVGNYTCEVTELSREGKTVIELKNRTVSWFSPNEKILIVIFPILAILLFWGKFGILTLKYKSSHTNKRIILLLVAGLVLTVIVVVGAILLIPGEKPVKNASGLGLIVISTGILILLQYNVFMTAFGMTSFTIAILITQVLGYVLALVGLCLCIMACEPVHGPLLISGLGIIALAELLGLVYMKFVASNQRTIQPPRNR
notes: whole, on cells; The legend names the cells (RBCs from WT mice); also called mCD47 on WT RBCs

The remaining lines, values behind:

B1: 5F9-GAALIE (antibody, human IgG1)
heavy chain: QVQLVQSGAEVKKPGASVKVSCKASGYTFTNYNMHWVRQAPGQRLEWMGTIYPGNDDTSYNQKFKDRVTITADTSASTAYMELSSLRSEDTAVYYCARGGYRAMDYWGQGTLVTVSSASTKGPSVFPLAPSSKSTSGGTAALGCLVKDYFPEPVTVSWNSGALTSGVHTFPAVLQSSGLYSLSSVVTVPSSSLGTQTYICNVNHKPSNTKVDKRVEPKSCDKTHTCPPCPAPELLAGPSVFLFPPKPKDTLMISRTPEVTCVVVDVSHEDPEVKFNWYVDGVEVHNAKTKPREEQYNSTYRVVSVLTVLHQDWLNGKEYKCKVSNKALPLPEEKTISKAKGQPREPQVYTLPPSREEMTKNQVSLTCLVKGFYPSDIAVEWESNGQPENNYKTTPPVLDSDGSFFLYSKLTVDKSRWQQGNVFSCSVMHEALHNHYTQKSLSLSPGK
light chain: DIVMTQSPLSLPVTPGEPASISCRSSQSIVYSNGNTYLGWYLQKPGQSPQLLIYKVSNRFSGVPDRFSGSGSGTDFTLKISRVEAEDVGVYYCFQGSHVPYTFGQGTKLEIKVDAPSVFIFPPSDEQLKSGTASVVCLLNNFYPREAKVQWKVDNALQSGNSQESVTEQDSKDSTYSLSSTLTLSKADYEKHKVYACEVTHQGLSSPVTKSFNRGEC
notes: also called 5F9-hIgG1-GAALIE; GAALIE 5F9 ab
- binding result (FcγRI [1]): binds
- binding result (FcγRIIb [2]): binds

B2: IgG2a (antibody)
heavy chain constant region: TTAPSVYPLAPVCGGTTGSSVTLGCLVKGYFPEPVTLTWNSGSLSSGVHTFPALLQSGLYTLSSSVTVTSNTWPSQTITCNVAHPASSTKVDKKIEPRVPITQNPCPPLKECPPCAAPDLLGGPSVFIFPPKIKDVLMISLSPMVTCVVVDVSEDDPDVQISWFVNNVEVHTAQTQTHREDYNSTLRVVSALPIQHQDWMSGKEFKCKVNNRALPSPIEKTISKPRGPVRAPQVYVLPPPAEEMTKKEFSLTCMITGFLPAEIAVDWTSNGRTEQNYKNTATVLDSDGSYFMYSKLRVQKSTWERGSLFACSVVHEGLHNHLTTKTISRSLGK
notes: The variable region is not specified there; also called mIgG2a; mouse IgG2a subclass (Fc format)
- binding result (FcγRI [3]): binds
- binding result (FcγRIII): binds
- binding result (FcγRIIb [4]): binds

B3: MIAP301-mIgG1-D265A (antibody)
heavy: QVKLLQSGAALVKPGASVKMSCQASGYSFTDYWVTWVKQSHGQSLEWIGEIYPSNTVTNFNDNFKGKATLTVDKSTSTAYMELSRLTSEDSAIYYCTRLGNSGYRVGWFLYWGQGTLVTVISASTKGPSVYPLAPGSAAQTNSMVTLGCLVKGYFPEPVTVTWNSGSLSSGVHTFPAVLQSDLYTLSSSVTVPSSTWPSQTVTCNVAHPASSTKVDKKIVPRDCGCKPCICTVPEVSSVFIFPPKPKDVLTITLTPKVTCVVVAISKDDPEVQFSWFVDDVEVHTAQTKPREEQINSTFRSVSELPIMHQDWLNGKEFKCRVNSAAFPAPIEKTISKTKGRPKAPQVYTIPPPKEQMAKDKVSLTCMITNFFPEDITVEWQWNGQPAENYKNTQPIMDTDGSYFVYSKLNVQKSNWEAGNTFTCSVLHEGLHNHHTEKSLSHSPGK
VL: SDTVLTQSPALAVSPGERVTISCKASESVSSHMHWYQQKPGQQPKLLIYKASNLASGVPARFSGSGSGTDFTLTIDPVEADDTATYFCQQGWNGPFTFGAGTRLELKRAVD
notes: Heavy chain assembled from the VH entry and the constant region entry named for the Fc format; also called mIgG1-D265A Fc variant of MIAP301
- binding result [5]: binds

B4: MIAP301-mIgG1 (antibody)
heavy: QVKLLQSGAALVKPGASVKMSCQASGYSFTDYWVTWVKQSHGQSLEWIGEIYPSNTVTNFNDNFKGKATLTVDKSTSTAYMELSRLTSEDSAIYYCTRLGNSGYRVGWFLYWGQGTLVTVISAS
VL: SDTVLTQSPALAVSPGERVTISCKASESVSSHMHWYQQKPGQQPKLLIYKASNLASGVPARFSGSGSGTDFTLTIDPVEADDTATYFCQQGWNGPFTFGAGTRLELKRAVD
notes: also called mIgG1 Fc variant of MIAP301; not shown: mouse IgG1 heavy chain constant region, wild type
- binding result [5]: binds
